Fold reduction in Fc receptor binding relative to RSLV-124, cell death of THP1 cells by FACS, RNase Fc mutant compared to wild type and fold decrease in cell death of THP1 cells (Annexin V binding and propidium iodide binding), RNase-Fc mutant compared to RNase-wild type Fc fusion protein data for two substances are collected here from patent US20140044711A1.

Test [1] deals with Fc receptors on the surface of THP1 cells (Fc bearing human myeloid/monocytic cell line) (human). The experiment in a line: FACS, mean fluorescence intensity of AF-647 labeled protein bound to THP1 cells. (In general: Flow cytometry measures light scatter and fluorescence of single cells or particles in a stream.)
For test [2] the target is unchanged. The experiment in a line: cell-based or functional assay.

Some results are limits rather than exact numbers.

Substance “RSLV-132 (wthRNase-SCC-mthIgG1 P238S P331S) (Fc fusion)” gave a fold reduction in Fc receptor binding relative to RSLV-124 in test [1] of over 4 fold.
In test [2], “RNase-Fc fusion protein with a mutant Fc (P238S, P331S) (mtRNasemgIgG)” had a cell death of THP1 cells by FACS, RNase Fc mutant compared to wild type of 3 to 5 fold; a fold decrease in cell death of THP1 cells (Annexin V binding and propidium iodide binding), RNase-Fc mutant compared to RNase-wild type Fc fusion protein of 3 fold.
